The values below come from paper doi:10.1101/2024.11.24.625074, “Assembly and lipid-gating of LRRC8A:D volume-regulated anion channels” (bioRxiv, 2024).

This series deals with the molecule itself. The series can be described thus: cryo-EM structure; LRRC8A_(BRIL):D complexes co-expressed in Sf9, purified in 20 mM HEPES, 150 mM KCl, 1 mM EDTA, 0.02% GDN, pH 7.4; α-BRIL Fab BAG2 and α-Fab Nb added as fiducials; two conformations resolved by 3D variability analysis, C1 symmetry.

B1: Mus musculus LRRC8D (natural protein, UniProt Q8BGR2 1-859, looked up)
chain: MFTLAEVASLNDIQPTYRILKPWWDVFMDYLAVVMLMVAIFAGTMQLTKDQVVCLPVLPSPANSKAHTPPGNADITTEVPRMETATHQDQNGQTTTNDVAFGTSAVTPDIPLQATHPHAESTLPNQEAKKEKRDPTGRKTNLDFQQYVFINQMCYHLALPWYSKYFPYLALIHTIILMVSSNFWFKYPKTCSKVEHFVSILGKCFESPWTTKALSETACEDSEENKQRITGAQTLPKHVSTSSDEGSPSASTPMINKTGFKFSAEKPVIEVPSMTILDKKDGEQAKALFEKVRKFRAHVEDSDLIYKLYVVQTLIKTAKFIFILCYTANFVNAISFEHVCKPKVEHLTGYEVFECTHNMAYMLKKLLISYISIICVYGFICLYTLFWLFRIPLKEYSFEKVREESSFSDIPDVKNDFAFLLHMVDQYDQLYSKRFGVFLSEVSENKLREISLNHEWTFEKLRQHVSRNAQDKQELHLFMLSGVPDAVFDLTDLDVLKLELIPEAKIPAKISQMTNLQELHLCHCPAKVEQTAFSFLRDHLRCLHVKFTDVAEIPAWVYLLKNLRELYLIGNLNSENNKMIGLESLRELRHLKILHVKSNLTKVPSNITDVAPHLTKLVIHNDGTKLLVLNSLKKMMNVAELELQNCELERIPHAIFSLSNLQELDLKSNNIRTIEEIISFQHLKRLTCLKLWHNKIVAIPPSITHVKNLESLYFSNNKLESLPTAVFSLQKLRCLDVSYNNISTIPIEIGLLQNLQHLHITGNKVDILPKQLFKCVKLRTLNLGQNCIASLPEKISQLTQLTQLELKGNCLDRLPAQLGQCRMLKKSGLVVEDQLFDTLPLEVKEALNQDVNVPFANGI
notes: the tag was cut off with TEV protease during purification, so a short C-terminal remnant of the linker and the cleavage site is left; Two copies stand in the hexameric channel; also called mmLRRC8D; LRRC8D subunit; source: Sf9 cells, co-expressed with LRRC8A_(BRIL) from one baculovirus; purified in GDN (α-mCherry nanobody resin, α-GFP nanobody resin, Superose 6 Increase); not shown: mCherry, …
With B1, the binding result is listed as “binds”.
